Measured values published in article PMC7758880 (Molecular Cell, 2020).

T1: Smc6 with a triple StrepII tag (S. cerevisiae, UniProt Q12749 1-1114)
T1 sequence: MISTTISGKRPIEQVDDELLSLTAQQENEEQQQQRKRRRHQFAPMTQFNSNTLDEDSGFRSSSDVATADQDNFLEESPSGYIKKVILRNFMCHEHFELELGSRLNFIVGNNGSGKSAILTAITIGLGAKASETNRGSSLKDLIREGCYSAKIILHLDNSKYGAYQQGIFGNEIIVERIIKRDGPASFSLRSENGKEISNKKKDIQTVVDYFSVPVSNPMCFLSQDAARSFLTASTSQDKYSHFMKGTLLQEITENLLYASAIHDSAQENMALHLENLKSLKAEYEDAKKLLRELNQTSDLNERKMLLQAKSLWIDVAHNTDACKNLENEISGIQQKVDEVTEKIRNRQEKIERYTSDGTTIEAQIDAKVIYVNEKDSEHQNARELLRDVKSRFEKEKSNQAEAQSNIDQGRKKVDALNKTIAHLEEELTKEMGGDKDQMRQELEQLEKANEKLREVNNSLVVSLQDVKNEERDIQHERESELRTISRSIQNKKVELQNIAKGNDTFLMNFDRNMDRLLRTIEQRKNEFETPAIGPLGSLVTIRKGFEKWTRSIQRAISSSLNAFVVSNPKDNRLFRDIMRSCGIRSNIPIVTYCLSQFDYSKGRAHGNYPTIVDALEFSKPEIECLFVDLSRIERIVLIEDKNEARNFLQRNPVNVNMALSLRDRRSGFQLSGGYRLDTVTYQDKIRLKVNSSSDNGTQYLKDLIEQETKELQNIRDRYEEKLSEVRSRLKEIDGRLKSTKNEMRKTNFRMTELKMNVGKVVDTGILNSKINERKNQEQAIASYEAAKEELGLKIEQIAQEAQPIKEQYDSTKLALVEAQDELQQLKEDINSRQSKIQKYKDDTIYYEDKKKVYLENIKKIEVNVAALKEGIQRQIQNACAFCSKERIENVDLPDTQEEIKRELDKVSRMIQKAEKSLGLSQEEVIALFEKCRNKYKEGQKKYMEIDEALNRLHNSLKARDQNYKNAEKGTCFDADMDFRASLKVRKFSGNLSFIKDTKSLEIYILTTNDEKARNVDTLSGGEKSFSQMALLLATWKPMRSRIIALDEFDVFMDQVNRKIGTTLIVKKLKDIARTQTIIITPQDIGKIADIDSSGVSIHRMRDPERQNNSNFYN

B1: Nse4 with 8xHis and 3xHA tags (natural protein)
chain: MSSTVISRKRRNSTVTEPDSSGETRKQKKSRSDEKSSSSKDGDPQLEFKVLQGYRDLESEMHKGRAQVTRTGDIGVAMDNLNAVDSLFNKVIGIKNNGLFAHDARAMVSISELAQISVRNLKFDDSRSMVNLENIVNSLKRYMLKEHFKLNNIAENRNDLTLAADEQSAADQQEESDGDIDRTPDDNHTDKATSSFKATSMRHSYLQQFSHYNEFSQFNWFRIGALYNTISKNAPITDHLMGPLSIEKKPRVLTQRRRNNDQVGEKITAEKITQHSLNSTQQETTPEQVKKCFKKLSKKLGPEGSINLFKFIIDPNSFSRSIENLFYTSFLIKEGKLLMEHDEEGLPTIKIKQSISHTDSRSKEIERQRRRAAHQNHIIFQMDMPTWRKLIKKYNITSPFLD
B2: Smc5 (natural protein)
chain: MTSLIDLGRYVERTHHGEDTEPRSKRVKIAKPDLSSFQPGSIIKIRLQDFVTYTLTEFNLSPSLNMIIGPNGSGKSTFVCAVCLGLAGKPEYIGRSKKVEDFIKNGQDVSKIEITLKNSPNVTDIEYIDARDETIKITRIITRSKRRSDYLINDYQVSESVVKTLVAQLNIQLDNLCQFLSQERVEEFARLKSVKLLVETIRSIDASLLDVLDELRELQGNEQSLQKDLDFKKAKIVHLRQESDKLRKSVESLRDFQNKKGEIELHSQLLPYVKVKDHKEKLNIYKEEYERAKANLRAILKDKKPFANTKKTLENQVEELTEKCSLKTDEFLKAKEKINEIFEKLNTIRDEVIKKKNQNEYYRGRTKKLQATIISTKEDFLRSQEILAQTHLPEKSVFEDIDIKRKEIINKEGEIRDLISEIDAKANAINHEMRSIQRQAESKTKSLTTTDKIGILNQDQDLKEVRDAVLMVREHPEMKDKILEPPIMTVSAINAQFAAYLAQCVDYNTSKALTVVDSDSYKLFANPILDKFKVNLRELSSADTTPPVPAETVRDLGFEGYLSDFITGDKRVMKMLCQTSKIHTIPVSRRELTPAQIKKLITPRPNGKILFKRIIHGNRLVDIKQSAYGSKQVFPTDVSIKQTNFYQGSIMSNEQKIRIENEIINLKNEYNDRKSTLDALSNQKSGYRHELSELASKNDDINREAHQLNEIRKKYTMRKSTIETLREKLDQLKREARKDVSQKIKDIDDQIQQLLLKQRHLLSKMASSMKSLKNCQKELISTQILQFEAQNMDVSMNDVIGFFNEREADLKSQYEDKKKFVKEMRDTPEFQSWMREIRSYDQDTKEKLNKVAEKYEEEGNFNLSFVQDVLDKLESEIAMVNHDESAVTILDQVTAELRELEHTVPQQSKDLETIKAKLKEDHAVLEPKLDDIVSKISARFARLFNNVGSAGAVRLEKPKDYAEWKIEIMVKFRDNAPLKKLDSHTQSGGERAVSTVLYMIALQEFTSAPFRVVDEINQGMDSRNERIVHKAMVENACAENTSQYFLITPKLLTGLHYHEKMRIHCVMAGSWIPNPSEDPKMIHFGETSNYSFD

How the values were obtained:
Smc5 = target: B2; assay: cross-linking
[1] = target: T1, Smc6 with a triple StrepII tag; assay: cross-linking
[2] = target: B1; assay: cross-linking
[3] = target: T1, Smc6 with a triple StrepII tag; assay: affinity purification with mass spectrometry

Row | binding result (Smc5) | binding result [1] | binding result [2] | binding result [3] | Binder
1 | binds | binds | binds | – | Nse3 (natural protein) MSSIDNDSDVDLTEDLAVAKIVKENPVARKMVRYILSRGESQNSIITRNKLQSVIHEAAREENIAKPSFSKMFMDINAILYNVYGFELQGLPSKNNMNAGGNGSNSNTNKSMPEPLGHRAQKFILLNNVPHSKNFDDFKILQSAHTYEELIVTGEYIGDDIASGTSNTLESKLSTDRDLVYKGVLSVILCIVFFSKNNILHQELIKFLETFGIPSDGSKIAILNITIEDLIKSLEKREYIVRLEEKSDTDGEVISYRIGRRTQAELGLESLEKLVQEIMGLEKEQTKSLHDDIIKSIGDSYSI
2 | binds | binds | – | – | Nse1 (natural protein) MEVHEEQVSAPVTGDATAKYLLQYILSARGICHENALILALMRLETDASTLNTEWSIQQWVDKLNDYINAINVKLNLLGYKIIRINHGIGRNAVTLKAKQNFESFEDNTAIRAHNNDYAVLQSIVLPESNRFFVYVNLASTEETKLATRFNQNEIEFMKWAIEQFMISGETIVEGPALETSIIVKEVNRILVAATGDSNLAKWRKFSTFTVGSTNLFQFQELTATDIEDLLLRLCELKWFYRTQEGKFGIDLRCIAELEEYLTSMYNLNTCQNCHKLAIQGVRCGNESCREENEETGENSLSQIWHVDCFKHYITHVSKNCDRCGSSLITEGVYVI
3 | binds | binds | – | – | B1
4 | binds | binds | – | – | Nse2 (enzyme) MALNDNPIPKSVPLHPKSGKYFHNLHARDLSNIYQQCYKQIDETINQLVDSTSPSTIGIEEQVADITSTYKLLSTYESESNSFDEHIKDLKKNFKQSSDACPQIDLSTWDKYRTGELTAPKLSELYLNMPTPEPATMVNNTDTLKILKVLPYIWNDPTCVIPDLQNPADEDDLQIEGGKIELTCPITCKPYEAPLISRKCNHVFDRDGIQNYLQGYTTRDCPQAACSQVVSMRDFVRDPIMELRCKIAKMKESQEQDKRSSQAIDVL
5 | binds | binds | – | – | Nse5 (natural protein) MDGALINSVLYVSPRNGAHYFVELTEKHLLAFEMLNSMCLLENYDHVLLFLECQFGKSHNLAVIPFDIILVLFTLSTLSEYYKEPILRANDPYNTSRETLSRRALKLLQKYLAILKEFDSEQYNLYDLELLRCQFFLAIDTLTPKKQKWGFDRFRRTKSESGVTYRQNASVDPELDQAKTFKNPYRSYISCLEQRNTILGNRLLNLKLNEPGEFINMILWTLSNSLQESTPLFLSSHEIWMPLLEILIDLFSCRQDYFIQHEVAQNVSKSLFVQRLSESPLAVFFESLNTRNFANRFSEYVFLNCDYKLPSDNYATPVHPVYNGENTIVDTYIPTIKCSPLYKSQKSLALRRKLIGSCFKLLLRVPDGHRLITPRIVADDVIQGISRTLASFNDILQFKKFFMTENLSQESYFIPLLAEGTLSEILKDTQECVVILTLVENLSDGVSFCNEVIGLVKSKCFAFTEQCSQASYEEAVLNIEKCDVCLLVLLRYLLHLIGTEAILDAKEQLEMLHAIEKNDSGRRQWAKALNLGNDPPLLYPIVSQMFGVHDKSVIIE
6 | – | – | – | binds | B2
